This is an account of results in patent EP4711384A1 (WIO Bioscience Co., Ltd., dated 2026).

Test [1] deals with T1, human IL-18R1 and IL-18RAP on IL-18 Reporter HEK 293 Cells (human, UniProt Q13478 19-541; O95256 20-599).
T1 sequence (looked up) 1: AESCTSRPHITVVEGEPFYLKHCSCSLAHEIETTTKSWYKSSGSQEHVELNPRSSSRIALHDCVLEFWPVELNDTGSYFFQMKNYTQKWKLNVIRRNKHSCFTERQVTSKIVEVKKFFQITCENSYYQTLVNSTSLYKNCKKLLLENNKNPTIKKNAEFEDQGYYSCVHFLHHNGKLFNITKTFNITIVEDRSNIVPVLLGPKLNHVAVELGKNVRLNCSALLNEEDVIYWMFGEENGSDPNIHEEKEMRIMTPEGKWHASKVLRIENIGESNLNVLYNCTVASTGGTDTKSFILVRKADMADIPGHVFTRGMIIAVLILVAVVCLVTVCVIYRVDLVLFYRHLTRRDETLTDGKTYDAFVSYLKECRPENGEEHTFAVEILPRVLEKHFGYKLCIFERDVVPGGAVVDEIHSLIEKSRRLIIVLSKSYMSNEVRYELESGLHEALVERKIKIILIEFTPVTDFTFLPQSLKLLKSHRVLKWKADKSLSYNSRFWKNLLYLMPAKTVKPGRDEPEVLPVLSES
T1 sequence (looked up) 2: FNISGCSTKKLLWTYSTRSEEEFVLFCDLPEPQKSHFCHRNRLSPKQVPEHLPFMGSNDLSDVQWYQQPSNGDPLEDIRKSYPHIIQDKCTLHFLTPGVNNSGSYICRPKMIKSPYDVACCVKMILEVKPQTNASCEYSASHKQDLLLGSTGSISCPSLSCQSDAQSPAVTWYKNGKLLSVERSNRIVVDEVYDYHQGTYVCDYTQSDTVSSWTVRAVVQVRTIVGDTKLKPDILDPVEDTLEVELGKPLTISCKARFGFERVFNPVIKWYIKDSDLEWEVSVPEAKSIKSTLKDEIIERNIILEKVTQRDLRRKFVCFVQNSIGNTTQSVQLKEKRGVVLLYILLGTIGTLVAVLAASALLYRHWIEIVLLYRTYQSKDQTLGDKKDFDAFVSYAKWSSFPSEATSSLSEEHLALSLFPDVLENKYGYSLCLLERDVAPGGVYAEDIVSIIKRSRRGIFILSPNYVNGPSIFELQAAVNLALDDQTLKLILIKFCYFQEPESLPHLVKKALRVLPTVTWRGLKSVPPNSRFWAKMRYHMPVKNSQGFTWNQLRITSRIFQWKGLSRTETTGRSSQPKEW
The test can be described thus: cell-based or functional assay.

The target of test [2] is T2, human IL-18R1 ECD-His (human) (UniProt Q13478).
T2 sequence: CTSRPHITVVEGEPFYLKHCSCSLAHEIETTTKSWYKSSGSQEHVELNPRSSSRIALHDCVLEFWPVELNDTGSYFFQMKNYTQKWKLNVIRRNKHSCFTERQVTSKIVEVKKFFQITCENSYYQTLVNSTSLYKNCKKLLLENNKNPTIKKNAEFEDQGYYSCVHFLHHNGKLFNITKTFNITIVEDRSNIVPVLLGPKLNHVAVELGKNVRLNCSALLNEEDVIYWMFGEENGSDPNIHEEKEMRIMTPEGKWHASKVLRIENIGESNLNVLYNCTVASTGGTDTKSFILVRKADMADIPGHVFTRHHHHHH
The test can be described thus: sandwich ELISA, IL-18RAP ECD-hFc detection. On the technique in general: In an ELISA, binding on a coated surface is turned into a signal by an enzyme label.

The target in test [3] is T1, human IL-18R1 and IL-18RAP on IL-18 …. The test can be described thus: cell-based or functional assay. The source holds these as a separate data set.

Values joined by “and” are separate entries in the source; they are usually repeats but may differ in a detail not shown here. Identical values can stand only once.

The EC50 is the concentration needed to bring the measured effect to its halfway point.

B1: Wio-02-01 (R1-A12-GGGGS-Rap-A10) (bispecific antibody)
chain: QVQLQESGGGPVQAGGSLRLSCSASTTAYDNACMGWFRQAPGKEREGVASIHLRDRTYYADSVKGRFTLSRDGASKTLYLQMNSLKPEDSGTYYCASSNICNGLNLQGNTYWGQGTQVTVSSGGGGSQVQLQESGGGLVQAGGSLKLSCAASGYTYGPYCMGWFRQFPGKEREGVAAVGGDGRTWYGNSVKGRFTISQDNAKKTLYLQINALKPEDTAMYYCAADFDRTVCSDDIYDYTYRGQGTQVTVSS
Consider B1, for which, in test [1], the “SEAP reporter OD, supernatant 5X” value was found to be 2.13 and the “SEAP reporter OD, supernatant 25X” value was determined as 1.92. Further, in test [2], the ELISA OD was 2.14 and 2.26. In test [3], this molecule came in with an EC50 of 1.87 ng/mL.
